# Laboratory results taken from the RNAGym collection of RNA variant scans (doi:10.7554/elife.80360).
# B1: HDV Ribozyme (parent)
# chain: GGCCGGCAUGGUCCCAGCCUCCUCGCUGGCGCCGGCUGGGCAACAUUCCGAGGGGACCGUCCCCUCGGUAAUGGCGAAUGGGACCCA
# Variants of: B1
# Experiment: self-cleavage, relative activity (ratio to wild type); higher = more cleavage; co-transcriptional
row,Variant,self-cleavage
1,A78G A83G,0.445
2,A78G A83U,0.0437
3,C75U G76C,0.271
4,C75U G76A,0.0852
5,C75G C85A,0.208
6,C75G C85G,0.0923
7,U79G G80U,0.366
8,U79G G80A,0.249
9,C75U G82U,0.296
10,G74C C85U,0.128
11,G74C C85A,0.217
12,G80A G81U,0.0936
13,G80A G81C,0.106
14,G74C G82U,0.179
15,C75U C84A,0.237
16,C75U C84G,0.136
17,A78C A87G,0.127
18,A78C A87C,0.199
19,A78C A87U,0.199
20,G74C A87G,0.291
21,G74C A87C,0.212

row,Variant,self-cleavage
1,A77U C86G,0.623
2,G74A C86U,0.604
3,A77G C86U,0.886
4,G76C G82U,0.326
5,C75U A77C,0.208
6,C75U A77G,0.0415
7,A77U U79A,0.32
8,A77U U79C,0.0811
9,G73U,0.382
10,U79G A87U,0.511
11,U79G A87G,0.669
12,U79G A87C,0.656
13,A77C G80U,0.219
14,G74A C85A,0.657
15,G73U A83C,0.17
16,A77U A78U,0.259
17,G80A C85G,0.312
18,G80A C85U,0.339
19,G74A G80U,0.124
20,G74A G80C,0.167
21,G74A G80A,0.182

row,Variant,self-cleavage
1,A77C A87C,0.391
2,G74C C75A,0.252
3,G74C C75U,0.108
4,G80A C86U,0.409
5,G80A C86A,0.532
6,U79G G81U,0.225
7,U79G G81A,0.146
8,C75G A78G,0.222
9,C75G A78C,0.151
10,C75G A78U,0.0462
11,G76U G80A,0.595
12,G76U G80C,0.204
13,G76U G80U,0.407
14,A77G A78U,0.266
15,A77G A78C,0.172
16,A77G A78G,0.277
17,G74U G82U,0.281
18,G74U G82C,0.0723
19,A78U G80U,0.244
20,A78U G80C,0.174
21,G74U A87G,0.473

row,Variant,self-cleavage
1,G74U A87C,0.554
2,C75G A83C,0.489
3,C75G A83U,0.201
4,G80A A83U,0.229
5,G80A A83G,0.396
6,C75A G80U,0.118
7,C75A G80A,0.12
8,C75A G80C,0.18
9,C75A G81A,0.151
10,U79C C85U,0.499
11,G76C G81A,0.499
12,G74A C75A,0.0528
13,G74A C75G,0.17
14,G73U C75G,0.086
15,G73U G74A,0.172
16,A78G C85G,0.539
17,A78G C85A,0.86
18,G74A A78G,0.111
19,G74A A78C,0.0811
20,C75U A83U,0.199
21,C75U A83C,0.128
